Measured values published in the supplement of paper PMC10724198.
± gives the standard deviation of the averaged measurements.

What was measured:
Saccharomyces cerevisiae [1] = assay: protein stability index of tFT-peptide fusion (C-terminal peptide) (PSI (0-1 scale)); higher = more stable (slower turnover)
Protocol: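 MPS profiling in S. cerevisiae of the tFT-X12 degron library: putative degron peptides plus stable controls, 12 aa, fused to the C-terminus of a sfGFP-mCherry timer. Cells are FACS-sorted into 8 mCherry/sfGFP bins and deep-sequenced. PSI runs from 0 (unstable) to 1 (stable). Backgrounds are wild type, das1Δ and doa10Δ at 30 °C, and wild type, das1Δ, cdc34-1 and cdc53-1 at 37 °C; 2-3 technical replicates each.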

Saccharomyces cerevisiae [2] = assay: as above; details: genetic background: wild type; temperature: 30 C
[3] = genetic background: cdc34-1, temperature: 37 C
[4] = genetic background: cdc53-1, temperature: 37 C
[5] = genetic background: das1 deletion, temperature: 30 C
[6] = genetic background: das1 deletion, temperature: 37 C
[7] = genetic background: doa10 deletion, temperature: 30 C
[8] = genetic background: wild type, temperature: 30 C
[9] = genetic background: wild type, temperature: 37 C
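Further: PSI is a weighted mean of sequencing reads over stability bins, variants kept only with over 10 reads, mCherry proximal and sfGFP distal, peptide attached via GGGS linker.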

| Sequence | protein stability index (Saccharomyces cerevisiae [1]; [3]) | protein stability index (Saccharomyces cerevisiae [1]; [4]) | protein stability index (Saccharomyces cerevisiae [1]; [5]) | protein stability index (Saccharomyces cerevisiae [1]; [6]) | protein stability index (Saccharomyces cerevisiae [1]; [7]) | protein stability index (Saccharomyces cerevisiae [1]; [8]) | protein stability index (Saccharomyces cerevisiae [1]; [9]) | protein stability index (Saccharomyces cerevisiae [2]) |
| --- | --- | --- | --- | --- | --- | --- | --- | --- |
| PFSLCFVFPFFF | 0.52 ± 0.021 | 0.5891 ± 0.0011 | 0.567 ± 0.035 | 0.6329 ± 0.0063 | 0.143 ± 0.0063 | 0.174 ± 0.0044 | 0.28 ± 0.0092 | 0.187 ± 0.0097 |
| PHHSPPTGPPND | 0.673 ± 0.011 | 0.737 ± 0.018 | 0.648 ± 0.008 | 0.7171 ± 0.0041 | 0.663 ± 0.014 | 0.658 ± 0.007 | 0.705 ± 0.0085 | 0.687 ± 0.022 |
| LLVSVVFVSRFF | 0.378 ± 0.024 | 0.465 ± 0.075 | 0.272 ± 0.038 | 0.514 ± 0.0092 | 0.213 ± 0.0049 | 0.251 ± 0.035 | 0.444 ± 0.006 | 0.387 ± 0.053 |
| FPRQFVYLPLLF | 0.647 ± 0.064 | 0.709 ± 0.025 | 0.555 ± 0.011 | 0.696 ± 0.017 | 0.372 ± 0.018 | 0.402 ± 0.032 | 0.595 ± 0.02 | 0.487 ± 0.011 |
| LGLLIFQWARVL | 0.302 ± 0.015 | 0.5 ± 0.0084 | 0.405 ± 0.026 | 0.553 ± 0.0056 | 0.0666 ± 0.012 | 0.0808 ± 0.016 | 0.092 ± 0.0037 | 0.12 ± 0.035 |
| FFVFSFVLFFPL | 0.347 ± 0.0076 | 0.427 ± 0.054 | 0.305 ± 0.046 | 0.456 ± 0.025 | 0.307 ± 0.006 | 0.322 ± 0.029 | 0.444 ± 0.022 | 0.369 ± 0.049 |
| FLVLFYCTFWVR | 0.162 ± 0.0078 | 0.242 ± 0.032 | 0.222 ± 0.019 | 0.3245 ± 0.0025 | 0.197 ± 0.006 | 0.211 ± 0.042 | 0.349 ± 0.071 | 0.329 ± 0.089 |
| ICSRCLVTVLSC | 0.4098 ± 0.0039 | 0.445 ± 0.0063 | 0.296 ± 0.037 | 0.514 ± 0.0071 | 0.198 ± 0.0024 | 0.217 ± 0.039 | 0.367 ± 0.015 | 0.311 ± 0.017 |
| SLVLLLLITFSL | 0.431 ± 0.023 | 0.507 ± 0.015 | 0.376 ± 0.025 | 0.527 ± 0.014 | 0.377 ± 0.016 | 0.373 ± 0.02 | 0.495 ± 0.021 | 0.491 ± 0.017 |
| YMVESVWVLLGT | 0.573 ± 0.029 | 0.5755 ± 0.0052 | 0.431 ± 0.032 | 0.582 ± 0.0083 | 0.381 ± 0.014 | 0.421 ± 0.042 | 0.564 ± 0.0079 | 0.49 ± 0.016 |
| LSIGCRCLWGWF | 0.718 ± 0.029 | 0.7548 ± 0.004 | 0.631 ± 0.013 | 0.762 ± 0.022 | 0.577 ± 0.009 | 0.5967 ± 0.0059 | 0.708 ± 0.026 | 0.465 ± 0.051 |
| GIANHAMVIVVL | 0.444 ± 0.011 | 0.469 ± 0.0052 | 0.322 ± 0.037 | 0.508 ± 0.0078 | 0.278 ± 0.0066 | 0.312 ± 0.017 | 0.468 ± 0.033 | 0.404 ± 0.04 |
| WVVVGWVGVGFR | 0.508 ± 0.029 | 0.548 ± 0.038 | 0.383 ± 0.027 | 0.5747 ± 0.0021 | 0.361 ± 0.019 | 0.378 ± 0.016 | 0.55387 ± 0.00053 | 0.445 ± 0.029 |
| KLRIVYAKVVCS | 0.547 ± 0.044 | 0.592 ± 0.025 | 0.511 ± 0.029 | 0.613 ± 0.0069 | 0.247 ± 0.019 | 0.274 ± 0.015 | 0.407 ± 0.067 | 0.348 ± 0.055 |
| FASALAPLSAVA | 0.48 ± 0.014 | 0.494 ± 0.022 | 0.366 ± 0.044 | 0.529 ± 0.001 | 0.307 ± 0.0091 | 0.358 ± 0.036 | 0.509 ± 0.0079 | 0.4002 ± 0.0029 |
| LVCLPVGFFLMW | 0.565 ± 0.084 | 0.638 ± 0.0074 | 0.47 ± 0.034 | 0.634 ± 0.0072 | 0.388 ± 0.0045 | 0.411 ± 0.013 | 0.576 ± 0.0068 | 0.4899 ± 0.0037 |
| GMNGLFFIAMLG | 0.53 ± 0.033 | 0.645 ± 0.041 | 0.514 ± 0.018 | 0.642 ± 0.035 | 0.195 ± 0.016 | 0.195 ± 0.029 | 0.398 ± 0.015 | 0.362 ± 0.02 |
| GSLPERPLRYVC | 0.516 ± 0.035 | 0.6878 ± 0.004 | 0.651 ± 0.017 | 0.7239 ± 0.0021 | 0.1 ± 0.028 | 0.0973 ± 0.013 | 0.148 ± 0.016 | 0.162 ± 0.01 |
| ASFVCWSVCALG | 0.508 ± 0.026 | 0.545 ± 0.006 | 0.4 ± 0.022 | 0.525 ± 0.015 | 0.384 ± 0.029 | 0.398 ± 0.019 | 0.5104 ± 0.0049 | 0.413 ± 0.025 |
| LCWASLLIVYLP | 0.397 ± 0.014 | 0.4614 ± 0.0036 | 0.311 ± 0.03 | 0.50382 ± 0.0004 | 0.27 ± 0.017 | 0.278 ± 0.032 | 0.463 ± 0.0039 | 0.392 ± 0.011 |

| Sequence | protein stability index (Saccharomyces cerevisiae [1]; [3]) | protein stability index (Saccharomyces cerevisiae [1]; [4]) | protein stability index (Saccharomyces cerevisiae [1]; [5]) | protein stability index (Saccharomyces cerevisiae [1]; [6]) | protein stability index (Saccharomyces cerevisiae [1]; [7]) | protein stability index (Saccharomyces cerevisiae [1]; [8]) | protein stability index (Saccharomyces cerevisiae [1]; [9]) | protein stability index (Saccharomyces cerevisiae [2]) |
| --- | --- | --- | --- | --- | --- | --- | --- | --- |
| PPLPPPPPHPPP | 0.458 ± 0.045 | 0.52 ± 0.019 | 0.477 ± 0.0095 | 0.521 ± 0.023 | 0.501 ± 0.017 | 0.493 ± 0.04 | 0.4959 ± 0.0011 | 0.488 ± 0.016 |
| FWSARAVVWWCW | 0.506 ± 0.036 | 0.554 ± 0.026 | 0.445 ± 0.021 | 0.567 ± 0.011 | 0.449 ± 0.012 | 0.449 ± 0.027 | 0.574 ± 0.039 | 0.477 ± 0.051 |
| FSICGFYSLCFG | 0.569 ± 0.028 | 0.617 ± 0.019 | 0.503 ± 0.021 | 0.628 ± 0.013 | 0.4968 ± 0.0046 | 0.512 ± 0.0077 | 0.599 ± 0.023 | 0.492 ± 0.045 |
| VLISLVLLFRCW | 0.23 ± 0.015 | 0.244 ± 0.038 | 0.262 ± 0.023 | 0.386 ± 0.016 | 0.307 ± 0.028 | 0.248 ± 0.03 | 0.332 ± 0.017 | 0.408 ± 0.041 |
| LSLCPVHRLLVL | 0.558 ± 0.02 | 0.632 ± 0.032 | 0.481 ± 0.025 | 0.624 ± 0.007 | 0.358 ± 0.0063 | 0.379 ± 0.034 | 0.5327 ± 0.0015 | 0.498 ± 0.03 |
| VAIMSIWLVYML | 0.349 ± 0.0086 | 0.465 ± 0.0057 | 0.341 ± 0.031 | 0.497 ± 0.016 | 0.331 ± 0.0076 | 0.333 ± 0.0079 | 0.4919 ± 0.0028 | 0.454 ± 0.0058 |
| WIYKIVTYEKKS | 0.701 ± 0.05 | 0.701 ± 0.03 | 0.648 ± 0.041 | 0.705 ± 0.029 | 0.633 ± 0.038 | 0.633 ± 0.036 | 0.702 ± 0.0082 | 0.145 ± 0.049 |
| FVSVAGFIVVVV | 0.47 ± 0.018 | 0.488 ± 0.036 | 0.293 ± 0.048 | 0.5341 ± 0.0027 | 0.291 ± 0.013 | 0.28 ± 0.034 | 0.498 ± 0.0068 | 0.4076 ± 0.00077 |
| WIVQCCLYVPVQ | 0.288 ± 0.011 | 0.314 ± 0.017 | 0.25 ± 0.025 | 0.3619 ± 0.0011 | 0.212 ± 0.0053 | 0.237 ± 0.02 | 0.356 ± 0.024 | 0.377 ± 0.0076 |
| CFCPILFPRCLA | 0.476 ± 0.048 | 0.636 ± 0.016 | 0.579 ± 0.045 | 0.6659 ± 0.0023 | 0.142 ± 0.017 | 0.139 ± 0.021 | 0.19 ± 0.013 | 0.25 ± 0.072 |
| FFLLSVVLKYSV | 0.0374 ± 0.0046 | 0.08659 ± 0.00036 | 0.103 ± 0.029 | 0.174 ± 0.0019 | 0.093 ± 0.021 | 0.0922 ± 0.021 | 0.14 ± 0.0075 | 0.19 ± 0.015 |
| AGALAVALPCIC | 0.493 ± 0.011 | 0.506 ± 0.018 | 0.399 ± 0.03 | 0.531 ± 0.011 | 0.316 ± 0.0093 | 0.358 ± 0.028 | 0.48 ± 0.011 | 0.5 ± 0.046 |
| VLGLYSLLLSFF | 0.567 ± 0.068 | 0.6627 ± 0.0015 | 0.524 ± 0.034 | 0.644 ± 0.016 | 0.277 ± 0.013 | 0.305 ± 0.0096 | 0.4532 ± 0.0012 | 0.337 ± 0.007 |
| FSVLVVYTRLFQ | 0.427 ± 0.064 | 0.452 ± 0.033 | 0.332 ± 0.042 | 0.558 ± 0.013 | 0.306 ± 0.011 | 0.321 ± 0.033 | 0.508 ± 0.012 | 0.414 ± 0.091 |
| AFVVYSGSHGLV | 0.686 ± 0.0094 | 0.75 ± 0.032 | 0.659 ± 0.014 | 0.7518 ± 0.0027 | 0.648 ± 0.011 | 0.654 ± 0.014 | 0.7186 ± 0.003 | 0.57 ± 0.2 |
| LHRLRFTLVQVS | 0.171 ± 0.0037 | 0.196 ± 0.036 | 0.228 ± 0.032 | 0.32664 ± 0.00013 | 0.127 ± 0.018 | 0.163 ± 0.021 | 0.2 ± 0.0028 | 0.223 ± 0.022 |
| CGLYNQFCLFLY | 0.561 ± 0.04 | 0.626 ± 0.022 | 0.527 ± 0.018 | 0.6526 ± 0.0024 | 0.2274 ± 0.0022 | 0.217 ± 0.029 | 0.37 ± 0.0043 | 0.31 ± 0.027 |
| SKSRKTGWMLIS | 0.622 ± 0.055 | 0.743 ± 0.029 | 0.632 ± 0.033 | 0.74 ± 0.013 | 0.156 ± 0.014 | 0.164 ± 0.033 | 0.427 ± 0.022 | 0.153 ± 0.015 |
| TLNKDILIIKCA | 0.382 ± 0.023 | 0.42 ± 0.036 | 0.286 ± 0.035 | 0.45 ± 0.013 | 0.135 ± 0.022 | 0.175 ± 0.022 | 0.214 ± 0.049 | 0.212 ± 0.0051 |
